Reference: article PMC6268379, “Antifungal Activity of Homoaconitate and Homoisocitrate Analogs” (Molecules, 2012)

B1: recombinant homoaconitase (HA) (Candida albicans SC5314) (protein)
chain: MMLRFRSFSTTTHLLRGQNLTEKIVQKYAVGLQPSSKKVYSGDYVTIKPAHCMSHDNSWPVATKFMNLGASKVKDNRQIVCTLDHDVQNKSEQNLTKYTNIEKFAKSQGIDFYPAGRGIGHQIMIEEGYAFPLNLTVASDSHSNTYGGIGALGTPIVRTDAASIWATGQTWWQIPPVAKVELIGQLPKGVTGKDIIVALCGIFNNDEVLNHAIEFVGDDAISKLPIDYRLTIANMTTEWGALSGLFPVDETLVEFYQNRLKKLNKPDHPRINNQTIDQLINNKLTSDNDAVYAKHLQIDLSSLSPYISGPNSVKISNSLYDLSQQNIAINKAYLVSCTNSRLSDIQAAADIIKGHKVNPNVEFYVAAASSLVQKDAEQSGAWQTILDAGAKPLPAGCGPCIGLGTGLLKDGEVGISATNRNFKGRMGSKDALAYLASPEVVAASAVLGKIGGPEELNGEPVKQAPRIIKSIETESNSANEAESTSEEASGSIDILPGFPQSIEGELILCNADNINTDGIYPGKYTYQDDITKEQMAKVCMENYDSQFYSKTKPGDIIISGYNFGTGSSREQAATCILARGMKLIVAGSFGNIFSRNSINNALLTLEIPDLINKLRQQYEGNDELTIRTGWFLKWDVTKAQVTVVDGDDNLILTQKVGELGTNLQDIIVKGGLEGWVKSELKTNQ
notes: made in house
B2: recombinant homoisocitrate dehydrogenase (HIcDH) (Candida albicans SC5314) (protein)
chain: STSSTTLKSLKIGLIPGDGIGREVIPAGKAVLENLPAKHDLQFEFVNLDAGFELFKKTGTALPDETVDVLKKECDGALFGAVSSPTTKVAGYSSPIVALRKKLGLYANVRPVKSVEGIGRPVDMVIVRENTEDLYIKEERVYKKEDGTKVAEAIKRITETASTRIAKMAYEIALQREAVRKGTSGKQLHEKPSVTVTHKSNVLSQSDGLFRETCRAVYDANANEYGGIEYKEQIVDSMVYRMFREPEIFDVVVAPNLYGDILSDGAAALVGSLGVVPSANVGDNFAIGEPCHGSAPDIEGKGISNPVATIRSTALMLEFMGYPEAAATIYQAVDANLAEDKIKTPDLGGNSTTQEVIDDIIRRF

What was measured:
[1] = substrate: O=C(O)CC[C@@](O)(CC(=O)O)C(=O)O; assay: Homoaconitase activity, coupled reaction with HIcDH, NADH at 340 nm; type: biochemical, Candida albicans; details: other: recombinant C. albicans HA; pH 8.5; 20.0 °C
Protocol: (§1) Recombinant C. albicans homoaconitase (HA) and homoisocitrate dehydrogenase (HIcDH) containing oligoHis N-terminal tags were constructed and purified to near homogeneity as described earlier.
Activity of homoaconitase (HA) was measured by a coupled reaction with HIcDH by monitoring the reduction of NAD^+ to NADH at 340 nm. Reaction mixtures containing 50 mM Tris-HCl (pH 8.5), 50 mM KCl, 5 mM MgCl2, 20 mM dithiothreitol, 1 mM NAD^+ and 30 μg/mL of His6-HIcDH in a total volume of 0.9 mL were degassed under argon for 10 min, after which 0.05 mL of His6-HAC solution was added to a final concentration of 10 μg/mL. The reaction was initiated with addition of 0.05 mL of 50 mM (R)-homocitrate. The formation of NADH was measured for 30 s at 20 °C to determine initial reaction velocity. The initial rates were determined using a linear portion of the reaction progress curve.
(§2) The effects of novel compounds on the HA and HIcDH activity was determined by measuring the enzyme activity in standard assay mixtures containing various concentration of an inhibitor (0–10 mM). Inhibitory potential was expressed as IC50 values, i.e., concentrations causing 50% inhibition of enzyme activity in relation to control. All determinations were performed in triplicate.

[2] = substrate: O=C(O)CC[C@H](C(=O)O)[C@@H](O)C(=O)O; assay: Homoisocitrate dehydrogenase activity, NADH absorption at 340 nm; type: biochemical; details: other: recombinant C. albicans HIcDH; pH 7.8; 20.0 °C
Protocol: as §1
Reaction catalyzed by homoisocitrate dehydrogenase (HIcDH) was monitored by measuring the NADH absorption at 340 nm. The standard assay mixture contained 10 mM KCl, 5.0 mM MgCl2, 5 mM NAD^+ and 0.1 mM (2R,3S)-homoisocitrate in 50 mM Hepes-NaOH (pH 7.8) buffer. The reaction mixture with all required components except for the enzyme was preincubated for 3 min and the reaction was started by an addition of the recombinant His6-HIcDH (50 μg). The formation of NADH was measured for 30 s at 20 °C to determine initial reaction velocity. The initial rates were determined using a linear portion of the reaction progress curve.
as §2

Protein | Km [1] [µM] | Km [2] [µM]
B1 | 1500 | –
B2 | – | 74
